Source: the supplement of paper PMC9732359
± gives the uncertainty stated by the source.

Assay: protein stability index of a GFP-peptide fusion (yeast GPS) (PSI 1-4); higher = more stable; sorted into four equal gates, so the index is relative within each strain
In short: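 Tiled 17-residue peptides from yeast proteins were fused downstream of GFP on a plasmid that also expresses Cherry, and the pooled library was carried in yeast. Mid-log cultures grown in leucine-free medium were sorted into four equal gates by GFP/Cherry fluorescence ratio. Plasmids from each gate were PCR-amplified and Illumina-sequenced, and reads were assigned to strains by barcodes. Each peptide's protein stability index is the sum, over gates, of the gate's read frequency multiplied by its gate number.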

Sequence	protein stability index (doa10∆)	protein stability index (pdr5∆)	protein stability index (san1∆)	protein stability index (ubr1∆)
IPTLAIDSVEVETNTTV [RPB3]	2.82 ± 0.22	2.44 ± 0.16	2.94 ± 0.083	2.98 ± 0.059
GFQDRSLPHFPKNSKTP [RPO31]	2.7 ± 0.14	1.96 ± 0.1	1.56 ± 0.11	–
EANFDLINIDTSIANAF [RPC40]	2.78 ± 0.049	3.27 ± 0.057	3 ± 0.05	3.07 ± 0.043
NRMQISPDQMRNLQMGL [GRR1]	–	3.18 ± 0.12	3.27 ± 0.11	2.83 ± 0.12
LSVDDIRGAVGNSEAIP [RTT102]	3.35 ± 0.053	3.38 ± 0.057	3.3 ± 0.056	3.41 ± 0.047
TNLSGGEKTLSSLALVF [SMC4]	3.34 ± 0.083	3.2 ± 0.097	3.04 ± 0.25	3.37 ± 0.054
ENEVENINATNTSVLMK [YCS4]	3.3 ± 0.16	3.02 ± 0.12	3.09 ± 0.091	3.36 ± 0.087
SYEVEHVIQIPLNKPLL [TAF14]	2.46 ± 0.069	2.66 ± 0.045	2.52 ± 0.06	2.51 ± 0.055
TTTSNTSGTNIAGTFNV [YOR098C/NUP1]	3 ± 0.05	2.54 ± 0.037	2.5 ± 0.051	2.24 ± 0.028
APTLSQTYINQELGFCE [SSN2]	2.85 ± 0.18	2.81 ± 0.16	1.95 ± 0.22	2.92 ± 0.18
LWSGKQILSVAIPNGIH [RPO21]	1.57 ± 0.066	1.59 ± 0.051	1.37 ± 0.088	1.71 ± 0.087
STVIEEFTLFMDIAERI [YGL172W/NUP49]	2.37 ± 0.053	2.71 ± 0.053	2.47 ± 0.049	2.75 ± 0.038
ITVTAKQQPTMQANKLD [SWI3]	3.19 ± 0.096	3.15 ± 0.071	2.82 ± 0.07	3.01 ± 0.055
SAGRIESNNPSHDASRS [SIR4]	2.85 ± 0.21	2.3 ± 0.11	–	2.98 ± 0.17
MCGVIVKQYNKKWPQFY [SIN4]	1.65 ± 0.13	1.99 ± 0.096	1.62 ± 0.097	1.74 ± 0.046
IYATFLNESDCLEACSF [YDL116W/NUP84]	2.56 ± 0.091	2.85 ± 0.087	2.6 ± 0.13	2.59 ± 0.057
SSLNGTNAKIPQFDSTQ [SSN3]	3.06 ± 0.08	3 ± 0.093	2.98 ± 0.067	2.97 ± 0.063
QNIAQSSNQSAPVETKK [HRT1]	3.01 ± 0.11	2.91 ± 0.14	3.47 ± 0.15	3.16 ± 0.067
PAMAMEDLKNFIFQIIE [SRB8]	2.62 ± 0.065	2.9 ± 0.074	2.73 ± 0.078	1.71 ± 0.05
NSLFYLKWSACTSLMDI [IRR1]	1.68 ± 0.073	2.31 ± 0.047	1.61 ± 0.13	1.83 ± 0.042
NDNEDDDEEYDYNDVEV [BRR2]	3.28 ± 0.077	3.22 ± 0.079	3.34 ± 0.06	3.4 ± 0.052
VFEISENNSDSNSNNNG [SWI1]	2.89 ± 0.15	3.03 ± 0.11	3.15 ± 0.12	3.28 ± 0.15
IEEQDKKVQALQSDKNF [ITC1]	3.23 ± 0.076	3.11 ± 0.054	3.14 ± 0.045	3.16 ± 0.036
AASTPTTTATPHANPIT [PGD1]	2.91 ± 0.044	2.85 ± 0.035	2.92 ± 0.038	2.916 ± 0.026
MYTRLCICSGMLFEMDG [SIN4]	1.45 ± 0.038	1.41 ± 0.038	1.48 ± 0.073	1.42 ± 0.029
SFTSQGTISIQLKNGLL [MTR3]	2.66 ± 0.05	2.67 ± 0.047	2.69 ± 0.055	2.61 ± 0.032

Sequence	protein stability index (doa10∆)	protein stability index (pdr5∆)	protein stability index (san1∆)	protein stability index (ubr1∆)
IDKLSDVVMKATEPQMV [PRP8]	2.38 ± 0.063	2.71 ± 0.064	2.42 ± 0.065	2.28 ± 0.055
PTRYVLIRNVGTNTYRL [POP1]	1.97 ± 0.29	1.32 ± 0.23	1.12 ± 0.28	–
SSISWKNIAQCLSDYTK [YJL039C/NUP192]	2.05 ± 0.08	2.11 ± 0.076	1.87 ± 0.076	2.11 ± 0.058
SVERGRKRAHSLVSTQS [REC8]	3.21 ± 0.082	3.12 ± 0.066	3.26 ± 0.047	3.16 ± 0.042
EKGNAKMIDFATLSKLK [SIR3]	3.15 ± 0.074	3.08 ± 0.057	3.33 ± 0.037	3.24 ± 0.035
ATFTSIELTSYESIATY [RPN7]	1.75 ± 0.038	1.9 ± 0.04	1.77 ± 0.046	1.77 ± 0.025
QQSNKLHCCIQLLMGDI [RPN3]	1.72 ± 0.045	1.99 ± 0.068	2 ± 0.064	1.84 ± 0.054
LQDVIALSIADDASSAE [RPC53]	2.47 ± 0.11	1.57 ± 0.079	2.16 ± 0.17	2.81 ± 0.077
CLKRGWGHPTRMLLNLC [BRR2]	–	3.14 ± 0.14	3.23 ± 0.079	–
TAIDKNGNITYSEEPRE [FAS2]	2.87 ± 0.069	3.29 ± 0.066	3.12 ± 0.076	3.15 ± 0.073
SHLVVPYCPIASITGTG [YMR129W/POM152]	1.36 ± 0.065	1.37 ± 0.066	1.33 ± 0.1	1.36 ± 0.03
YFKSILLNKNTGNNLYD [SWI1]	2.59 ± 0.048	2.42 ± 0.036	2.04 ± 0.05	2.19 ± 0.031
YRRLFAKRLIHGTSTSA [CDC53]	1.44 ± 0.11	1.36 ± 0.11	–	–
NDFTTKLINIKKFDISN [MED1]	1.67 ± 0.08	1.47 ± 0.096	1.56 ± 0.28	2.28 ± 0.27
SIDDHPYNLNLFPNELY [RPC31]	2.14 ± 0.048	2.53 ± 0.061	2.69 ± 0.088	2.68 ± 0.064
KGKKGQKKRVVDPFTRK [RPS1A]	3.25 ± 0.13	3.69 ± 0.18	3.19 ± 0.15	3.47 ± 0.056
SPLLESDSIEKIVEIDR [PUP2]	3.48 ± 0.11	3.08 ± 0.1	2.59 ± 0.15	3.49 ± 0.14
KLLATSTKIIMLLLNDS [SRB8]	1.57 ± 0.065	1.46 ± 0.059	1.48 ± 0.16	1.23 ± 0.071
CGDSIICNTLNIAKDLK [SMC1]	1.78 ± 0.079	1.66 ± 0.067	1.42 ± 0.12	2.12 ± 0.075
TCAVGVKGKNCVVLGCE [PRE6]	–	–	–	3.42 ± 0.24
LLNHGERAELETDEYIS [RPN1]	1.55 ± 0.16	1.87 ± 0.083	3.08 ± 0.11	2.66 ± 0.11
DESDTISFRSNLLKNFI [SNF6]	2.04 ± 0.084	2.55 ± 0.12	2.58 ± 0.15	2.41 ± 0.079
STFRLNLSVTSPYNADF [RPO21]	2.21 ± 0.05	2.34 ± 0.054	2.6 ± 0.075	2.93 ± 0.044
KDRLYCGKCHSVYKVNA [RPS31]	1.49 ± 0.086	2.26 ± 0.1	1.89 ± 0.14	2.01 ± 0.052
LNVGNVLPLGSVPEGTI [RPL2A]	3.2 ± 0.077	3.15 ± 0.082	3.26 ± 0.1	3.28 ± 0.061
ENGTHNDEVNEDEEDDN [YCG1]	3.42 ± 0.1	3.23 ± 0.12	3.54 ± 0.11	3.49 ± 0.14
